Experimental findings from the nanobody polyreactivity screen of Harvey et al. (2022) are described below.

A short description of this data set: yeast display, Sf9 membrane polyspecificity reagent, FACS + sequencing; frameworks hold sequencing errors. The method in brief:
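Using colony PCR, genes from sorted yeast display clones were amplified, then sequenced on MiSeq at 2 × 250 and filtered by CDR length. The clones had been stained with 10% biotinylated, detergent-solubilized Sf9 membrane reagent for 1 hour at 4 °C and sorted by FACS into low and high (top ~1%) gates on anti-HA and streptavidin fluorescence. Polyreactivity labels come from the gate of origin.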
Turning to “QVQLVESGGGLVQAGGSLRLSCAASGFTFGYYGMGWYRQAPGKERELVAAISWSGGSTYYADSVKGRFTISRDNEKNTVYLQMNSLKPEDTAVYYCNADYAGFYQRRYIEDDYWGQGTQVTVSS”, the “polyreactivity (PSR sort gate)” value is on record as “low polyreactivity”. As to “QVHLVESGGGLVQAGGSLRLSCAASGLIFLWNAMGWYRQAPGKERELVAAISWSGGSTYYADSVKGRFTISRDNAKNTVYLQMNSLKPEDTAVYYCIRLLSLEFGFWGQGTQVTVSS”, the “polyreactivity (PSR sort gate)” value is “high polyreactivity”. With “QVQLVESGGGLVQAGGSLRLSCAASGSIFVSEYVMGWYRQAPGKERELVARIRWSSGSTYYADSVKGRFTISRDNAKNTVYLQMNSLKPEDTAVYYCNKDYYYVIGWTYHRSYHYDYWGQGTQVTVSS”, the “polyreactivity (PSR sort gate)” value is “low polyreactivity”. On to “QVQLVESGGGLVQAGGSLRLSCAASGRIFYNNAMGWYRQAPGKERELVASITRNGGRTYYADSVKGRFTISRDNAKNTVYLKMNSLKREDTAVYYCAIDYSRGQIRAGAYEYWGQGTQVTVSS”, for which the “polyreactivity (PSR sort gate)” value is on record as “high polyreactivity”. As to “QVQLVESGGGLVQAGGSLRLSCAASGYTFKAYAMGWYRQAPGKERELVAGISRSGGSTYYADSVKGRFTISRDNAKNTVYLQMNSLKPEDTAVYYCAADSFSWETVVPSVFEFDYWGQGTQVTVSS”, the “polyreactivity (PSR sort gate)” value is recorded as “low polyreactivity”. For “QVQLQESGGCVVQAGGSLRLSCAASGTISDSGLMGWYRQAPGKERELVAGISSGGITNYADSVKGRFTISRDNAKNTVYLQMNSLKPEDTAVYWGQGTQVTVSS”, the “polyreactivity (PSR sort gate)” value is recorded as “low polyreactivity”. With “QVQLVESGGGLVQAGGSLRLSCAASGFTFYRYTMGWSRQAPGKERELVAAISARGVSTYYADSVKGRFTISRDNAKNTVYLQMNCLKPEDTAVYYCYVSRYDSWGQGTQVTVSS” the entry was “high polyreactivity”. As for “QVQLLESGGGLVQAGGSLRLTCAASGSIFFYYAMAWYRQAPGKEMEFVAGITYSGGITYYADSVKGRFTISRDNEKNTVYLQMNSLKPEDTAVYYCDYGGGVYQYGYWGQGTLVTVSS”, the “polyreactivity (PSR sort gate)” value is given as “low polyreactivity”. As to “QVQLVESGGGLVQAGGRLRLSCAASGTTFVYYAMGWYRQAPGKERELVAAITASGGRTYYADSVKGRFTISRDNSKNTVYLEMNSLKPDDTAVYYCNARARKSIRVGGYNYWGQGSQVTVSS”, the “polyreactivity (PSR sort gate)” value is listed as “high polyreactivity”. On to “QVQLVESGGGLVQAGGSLRLSCAASGSTFDYSGMGWDIQAPGKERELVATITRRGGNTYYADSVKGRITISRDNANNTDYLQMNSLKPEDTAVYNCNVTPVRGSPEYGNWGQGTQVTVSS”, for which the “polyreactivity (PSR sort gate)” value is listed as “high polyreactivity”. Regarding “QVQLVESGGGLVQAGGSLRLSCAASGNTFDYYAMGWYRQAPGKERELVAAIDSGTTTYYADSVKGRFTISRDNAKNTVYLQMNSLKPEDTAVYYCAAEYAYVPGWYEYWGQGTQVTVSS”, the “polyreactivity (PSR sort gate)” value is reported as “high polyreactivity”. In the case of “QVQLVESGGGLVQAGGSLRLSCAASGRTFISNVIGWYRKAPGKERDLVAAITWRGGRTHYADSVKGRFTISRDNAKITVYLQMNSLKPEDTAVYYCAARYIPIQYPSYRTWGGYSWGQGTQVTVSS”, the “polyreactivity (PSR sort gate)” value is recorded as “high polyreactivity”. On to “QVQLVESWGGLVQAGGSLRLSSAASGFTFVTYGMGWYRQAPGKERELVARISSSSTNYADSVKGRFTISRDNAKNTVYLQMKSLKPEDTAVYYCAAVHYRWWYRSAYDYWGQGTQVTVSS”, for which the “polyreactivity (PSR sort gate)” value is “low polyreactivity”. Take “QVQLVESGGGLVQAGGSLRLSCAASGSTFSRNAMGWSRQAPGKERELVAAISYRGGSTYYADSVKGRFTISRDNAKNTVYLQMNSLKPEDTAVYYCNADVGWRAPDYGGYDYWGQGTQVTVSS”: the “polyreactivity (PSR sort gate)” value is recorded as “high polyreactivity”. With “QVQLVESGGGLVQAGGSLRLSCAASGITGHNAMGWYRQAPGKERELVARISSGGRTNYADSVKGRFTISRDNAKNTVYLKMNSLKPEDTAVYYCAAGFRVGSFLRYNYWGQGTKVTVSS” the entry was “high polyreactivity”; with “QVQLEESGGGLVQAGGSLRLSCAASGSIFSQYAMGWYRQAPGKERELVASITWRGGRTYYADSVKGRFTISRDNAKNTVYLQMNSLKPEDTAVYYCNRVYGAHHYYYGIGTYDYWGQGTQVTVSS”, “high polyreactivity”. Consider “QVQLVESGGGLVQAGGSLRLSCAASGRIFVVNAMGWYRQAPGKERELVAAISRSGGSTYYADSVKGRFTISRDNAKNTVYLQMNSLKPEETAVYFCAAVSWIYSFSAMSIYDYWGQGTQVTVSS”, for which the “polyreactivity (PSR sort gate)” value is given as “high polyreactivity”. Regarding “QVQIVESGGGLVQAGGSLRLSCAASGRIIKGYAMGWYRQAPGKDMELVADISEDGGSTYYADSVKGRFTISRDNAKNTVYLQMNSLKTEDTAVYFCAAEYYVVNYAIGYDYWGQGTQVTVSS”, the “polyreactivity (PSR sort gate)” value is given as “low polyreactivity”. On to “QVQLVESGGGLVQAGGSLRLSCAASGSTFAYNDMGWYRQAQGKERELVADIRSGGNTYADSVKGRFTISRDNAKNTVYLQMNSLKPVDTAVYYCAVDGGEFSSYGYWGQGTQLTVSS”, for which the “polyreactivity (PSR sort gate)” value is on record as “low polyreactivity”. Turning to “QVQLVESGGGLVQAGGSLRLSCAASGSIFKDNAMGWYRQAPGKERELVAAITSGASTNYADSVKGRFTISRDNAKNTVYLQMNSLKPEVTAVYYCAAVLAGGVYWVVHYDYWGQGTQVTVSS”, the “polyreactivity (PSR sort gate)” value is on record as “low polyreactivity”. With “QVHLVESGGGLVQAGGSLRLSCAASGSTFRVYAMGWYRQAPGKERELVARISITGGTTRYADSVKGRFTISRDNAKNTVYLQMNSLKPEDTAVYYCNADYDWYYWYLYKYPFDYWGQGTQVTVSS”, the “polyreactivity (PSR sort gate)” value is “low polyreactivity”. With “QVQLVESGGGLVQAGGSLRLSCAASGRIFRYNAMGWYRQAPGKERELVAAISWSGGSTYYADSVKGRFTISRDNAKNTVYLQMNSLKPEDTAVYYCNARYRYSVTGYDYWGQGTQVTVSS” the entry was “high polyreactivity”; with “QVQLVESGGGLVQAGGSLRLSCAASGINFSFYTMRWYRQAPGIERELVAAISSGGDTYYADSVNGRFTNSRDNAKNTVYLQMNSLKPEVTAVYYCAVDQYDRTTAFCYWYPYYYWGQGTQVTVSS”, “low polyreactivity”. “QVQLVESGGGLVQAGGSLRLSCAASGYTFRGYAMGWYRQAPGKEREFVAAMNWSDGSTYYADSVKGRFTISRDNPKNTVYLQMNSLKPEDTAVYYCNADQYYRVPDNYWGQGTQVTVSS”: the “polyreactivity (PSR sort gate)” value is “low polyreactivity”. Turning to “QVQLVESGGGLVQAGGSLRLSCAASGFIFYLNVMGWYRQAPGKERELVATITSGGSTNYADSVKGRFTISRDNAKNTVYLQMNSLKPEDTAVYYCAARRGKSYYWYNYWGQGTQVTVSS”, the “polyreactivity (PSR sort gate)” value is reported as “high polyreactivity”. For “QVQLVDSGAGLVQAGGSLSLTCAASGYTFYANAMGWYRQAPGKERELVAGINRSGSTYYADSVKGRFTISRDNAKNTVYLQMNSLKPEDTAVYYCATAWHRGVRGRTSGAFDYWGQGTQVTVSS”, the “polyreactivity (PSR sort gate)” value is recorded as “high polyreactivity”. Consider “QVQLVESGGGLVQAGGSLRLSCAASGYTFDAYAMGWYRQAPGKERELVAAITTNGGSTYYADSVKGRFTISRDNAKNTVYLQMNSLKPEDTAVYYCNAEYWYEGRYPYDYWGQGTQVTVSS”, for which the “polyreactivity (PSR sort gate)” value is recorded as “low polyreactivity”. For “QVQLVESGGGLVQAGGSLRLSCAASGSIFLYKAMGWYRQAPGKERELVADITSRGGSTYYADSVKGRFTISRDNAKNTVYLQMTSLKPEDTAVYDCNAVSRYVYGNGKNYYWGQGTHVTVSS”, the “polyreactivity (PSR sort gate)” value is “high polyreactivity”.

On to “QVQLVESGGGLVQAGGSLRLSCAASGYIFSYNAMGWYRQAPGKERELVAAITASGGGTYYADSVKGRFTISRDNAKNTVYLQMNSLKPEDTAVYYCAADFNDHYYWYGQDYDYWGQGTQVTVSS”, for which the “polyreactivity (PSR sort gate)” value is “low polyreactivity”. “QVQLVESGGGLVQAGGSLRLSCAASGRIFYVYAMGWYRQAPGKERELVAAINWRGGSTYYADSVKGRFPISRDNAKNTVYLQMNSLKPEDTAVYYCAARWYLYDYWGQGTQVTVSS”: the “polyreactivity (PSR sort gate)” value is “low polyreactivity”.
